Measured values from PMC9561763, “Semi-rational engineering membrane binding domain of L-amino acid deaminase from Proteus vulgaris for enhanced α-ketoisocaproate” (Frontiers in Microbiology, 2022).

Substrate: CC(C)C[C@H](N)C(=O)O
Assay: alpha-ketoisocaproate formation, Michaelis-Menten fit
Type: biochemical, Proteus vulgaris
Settings: 20 mM phosphate pH 7.5, 37 °C, 0-175 mM L-leucine (b36 says optimal temperature and pH), Triton X-100 purified enzyme
Description: alpha-ketoisocaproate formation, Michaelis-Menten fit on L-amino acid deaminase (L-AAD) from Proteus vulgaris

B1: L-amino acid deaminase (L-AAD) from Proteus vulgaris (Proteus vulgaris) (protein)
chain: MAISRRKFIIGGTVVAVAAGAGILTPMLTREGRFVPGTPRHGFVEGTEGALPKQADVVVVGAGILGIMTAINLVERGLSVVIVEKGNIAGEQSSRFYGQAISYKMPDETFLLHHLGKHRWREMNAKVGIDTTYRTQGRVEVPLDEEDLVNVRKWIDERSKNVGSDIPFKTRIIEGAELNQRLRGATTDWKIAGFEEDSGSFDPEVATFVMAEYAKKMGVRIYTQCAARGLETQAGVISDVVTEKGAIKTSQVVVAGGVWSRLFMQNLNVDVPTLPAYQSQQLISGSPTAPGGNVALPGGIFFREQADGTYATSPRVIVAPVVKESFTYGYKYLPLLALPDFPVHISLNEQLINSFMQSTHWNLDEVSPFEQFRNMTALPDLPELNASLEKLKAEFPAFKESKLIDQWSGAMAIAPDENPIISEVKEYPGLVINTATGWGMTESPVSAELTADLLLGKKPVLDPKPFSLYRF
Protein B1 has a Km of 17.71 mM, a kcat of 1.41 s⁻¹ and a kcat/Km of 79.5 M⁻¹ s⁻¹.
